Here are results for 3 sequences from the supplement of paper PMC5998384.

Data set [1] has as its system HeLa Kyoto. As to the kind of experiment: melting temperature (median over replicates), in situ; higher = more thermally stable.
For data set [2], the system named is HeLa Kyoto. Nature of the data set: thermal stability score vs G1/S (z-score of summed log2 fold changes over temperatures); higher = more thermally stable than in G1/S.
Data set [3] deals with HeLa Kyoto. Nature of the data set: solubility in G1/S (NP-40 vs SDS abundance) (log2 ratio); higher = more soluble. To be noted: cell cycle stage: G1/S.
The subject of data set [4] is HeLa Kyoto. As to the kind of experiment: solubility change mitosis vs G1/S (difference of NP-40 vs SDS log2 ratios) (log2 ratio difference); higher = more soluble in mitosis.
[5] abbreviates: cell cycle stage: early G1 (4.5 h after nocodazole release).
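Throughout, for melting temperature (median over replicates), in situ: HeLa Kyoto cells synchronized by double thymidine or nocodazole block, proteins quantified by TMT10plex mass spectrometry, three independent biological replicates.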
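Throughout, for solubility change mitosis vs G1/S (difference of NP-40 vs SDS log2 ratios): synchronized HeLa Kyoto cells (double thymidine block for G1/S, nocodazole release for mitosis), protein amounts in NP-40 versus SDS lysates quantified by mass spectrometry, three biological replicates.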
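Throughout, for solubility in G1/S (NP-40 vs SDS abundance): HeLa Kyoto cells arrested at G1/S by double thymidine block, proteins quantified by TMT10plex mass spectrometry in mild NP-40 versus SDS extracts, three biological replicates.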
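Throughout, for thermal stability score vs G1/S (z-score of summed log2 fold changes over temperatures): synchronized HeLa Kyoto cells, proteins quantified by TMT10plex mass spectrometry, three biological replicates, mitosis taken 0.5 h after nocodazole release, G1/S directly after double thymidine block.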

Consider “MDGKRRPGPGPGVPPKRARGGLWDDDDAPRPSQFEEDLALMEEMEAEHRLQEQEEEELQSVLEGVADGQVPPSAIDPRWLRPTPPALDPQTEPLIFQQLEIDHYVGPAQPVPGGPPPSRGSVPVLRAFGVTDEGFSVCCHIHGFAPYFYTPAPPGFGPEHMGDLQRELNLAISRDSRGGRELTGPAVLAVELCSRESMFGYHGHGPSPFLRITVALPRLVAPARRLLEQGIRVAGLGTPSFAPYEANVDFEIRFMVDTDIVGCNWLELPAGKYALRLKEKATQCQLEADVLWSDVVSHPPEGPWQRIAPLRVLSFDIECAGRKGIFPEPERDPVIQICSLGLRWGEPEPFLRLALTLRPCAPILGAKVQSYEKEEDLLQAWSTFIRIMDPDVITGYNIQNFDLPYLISRAQTLKVQTFPFLGRVAGLCSNIRDSSFQSKQTGRRDTKVVSMVGRVQMDMLQVLLREYKLRSYTLNAVSFHFLGEQKEDVQHSIITDLQNGNDQTRRRLAVYCLKDAYLPLRLLERLMVLVNAVEMARVTGVPLSYLLSRGQQVKVVSQLLRQAMHEGLLMPVVKSEGGEDYTGATVIEPLKGYYDVPIATLDFSSLYPSIMMAHNLCYTTLLRPGTAQKLGLTEDQFIRTPTGDEFVKTSVRKGLLPQILENLLSARKRAKAELAKETDPLRRQVLDGRQLALKVSANSVYGFTGAQVGKLPCLEISQSVTGFGRQMIEKTKQLVESKYTVENGYSTSAKVVYGDTDSVMCRFGVSSVAEAMALGREAADWVSGHFPSPIRLEFEKVYFPYLLISKKRYAGLLFSSRPDAHDRMDCKGLEAVRRDNCPLVANLVTASLRRLLIDRDPEGAVAHAQDVISDLLCNRIDISQLVITKELTRAASDYAGKQAHVELAERMRKRDPGSAPSLGDRVPYVIISAAKGVAAYMKSEDPLFVLEHSLPIDTQYYLEQQLAKPLLRIFEPILGEGRAEAVLLRGDHTRCKTVLTGKVGGLLAFAKRRNCCIGCRTVLSHQGAVCEFCQPRESELYQKEVSHLNALEERFSRLWTQCQRCQGSLHEDVICTSRDCPIFYMRKKVRKDLEDQEQLLRRFGPPGPEAW [POLD1]”, for which the figures for the melting temperature in the data set on HeLa Kyoto [1] (cell cycle stage: G1/S) and in the data set with HeLa Kyoto [1] (cell cycle stage: mitosis) were 48.3 °C and 49.1 °C, respectively. Besides, the thermal stability score in the data set on HeLa Kyoto [2] (setting [5]) came to 5.56; in the data set on HeLa Kyoto [2] (cell cycle stage: mitosis), 6.68. In the data set with HeLa Kyoto [3], the “solubility in G1/S (log2)” value is -0.0376. Besides, the “solubility change mitosis (log2)” value with HeLa Kyoto [4] is -0.101.
“MDGRTPRPQDAPARRKPKAKAPLPPAETKYTDVSSAADSVESTAFIMEQKENMIDKDVELSVVLPGDIIKSTTVHGSKPMMDLLIFLCAQYHLNPSSYTIDLLSAEQNHIKFKPNTPIGMLEVEKVILKPKMLDKKKPTPIIPEKTVRVVINFKKTQKTIVRVSPHASLQELAPIICSKCEFDPLHTLLLKDYQSQEPLDLTKSLNDLGLRELYAMDVNRESCQISQNLDIMKEKENKGFFSFFQRSKKKRDQTASAPATPLVNKHRPTFTRSNTISKPYISNTLPSDAPKKRRAPLPPMPASQSVPQDLAHIQERPASCIVKSMSVDETDKSPCEAGRVRAGSLQLSSMSAGNSSLRRTKRKAPSPPSKIPPHQSDENSRVTALQPVDGVPPDSASEANSPEELSSPAGISSDYSLEEIDEKEELSEVPKVEAENISPKSQDIPFVSTDIINTLKNDPDSALGNGSGEFSQNSMEEKQETKSTDGQEPHSVVYDTSNGKKVVDSIRNLKSLGPNQENVVQNEIIVYPENTEDNMKNGVKKTEINVEGVAKNNNIDMEVERPSNSEAHETDTAISYKENHLAASSVPDQKLNQPSAEKTKDAAIQTTPSCNSFDGKHQDHNLSDSKVEECVQTSNNNISTQHSCLSSQDSVNTSREFRSQGTLIIHSEDPLTVKDPICAHGNDDLLPPVDRIDKNSTASYLKNYPLYRQDYNPKPKPSNEITREYIPKIGMTTYKIVPPKSLEISKDWQSETIEYKDDQDMHALGKKHTHENVKETAIQTEDSAISESPEEPLPNLKPKPNLRTEHQVPSSVSSPDDAMVSPLKPAPKMTRDTGTAPFAPNLEEINNILESKFKSRASNAQAKPSSFFLQMQKRVSGHYVTSAAAKSVHAAPNPAPKELTNKEAERDMLPSPEQTLSPLSKMPHSVPQPLVEKTDDDVIGQAPAEASPPPIAPKPVTIPASQVSTQNLKTLKTFGAPRPYSSSGPSPFALAVVKRSQSFSKERTESPSASALVQPPANTEEGKTHSVNKFVDIPQLGVSDKENNSAHNEQNSQIPTPTDGPSFTVMRQSSLTFQSSDPEQMRQSLLTAIRSGEAAAKLKRVTIPSNTISVNGRSRLSHSMSPDAQDGH [COBLL1]”: the melting temperature amounted to 50.5 °C in the data set with HeLa Kyoto [1] (cell cycle stage: G1/S) and 50.8 °C in the data set on HeLa Kyoto [1] (cell cycle stage: mitosis). The thermal stability score in the data set on HeLa Kyoto [2] (setting [5]) was -0.155; in the data set on HeLa Kyoto [2] (cell cycle stage: mitosis), -0.336. Further, the “solubility in G1/S (log2)” value in the data set with HeLa Kyoto [3] worked out at 0.0471. Besides, in the data set with HeLa Kyoto [4], the “solubility change mitosis (log2)” value was -0.0197.
As to “MDHYDSQQTNDYMQPEEDWDRDLLLDPAWEKQQRKTFTAWCNSHLRKAGTQIENIEEDFRDGLKLMLLLEVISGERLAKPERGKMRVHKISNVNKALDFIASKGVKLVSIGAEEIVDGNVKMTLGMIWTIILRFAIQDISVEETSAKEGLLLWCQRKTAPYKNVNIQNFHISWKDGLGFCALIHRHRPELIDYGKLRKDDPLTNLNTAFDVAEKYLDIPKMLDAEDIVGTARPDEKAIMTYVSSFYHAFSGAQKAETAANRICKVLAVNQENEQLMEDYEKLASDLLEWIRRTIPWLENRVPENTMHAMQQKLEDFRDYRRLHKPPKVQEKCQLEINFNTLQTKLRLSNRPAFMPSEGRMVSDINNAWGCLEQVEKGYEEWLLNEIRRLERLDHLAEKFRQKASIHEAWTDGKEAMLRQKDYETATLSEIKALLKKHEAFESDLAAHQDRVEQIAAIAQELNELDYYDSPSVNARCQKICDQWDNLGALTQKRREALERTEKLLETIDQLYLEYAKRAAPFNNWMEGAMEDLQDTFIVHTIEEIQGLTTAHEQFKATLPDADKERLAILGIHNEVSKIVQTYHVNMAGTNPYTTITPQEINGKWDHVRQLVPRRDQALTEEHARQQHNERLRKQFGAQANVIGPWIQTKMEEIGRISIEMHGTLEDQLSHLRQYEKSIVNYKPKIDQLEGDHQLIQEALIFDNKHTNYTMEHIRVGWEQLLTTIARTINEVENQILTRDAKGISQEQMNEFRASFNHFDRDHSGTLGPEEFKACLISLGYDIGNDPQGEAEFARIMSIVDPNRLGVVTFQAFIDFMSRETADTDTADQVMASFKILAGDKNYITMDELRRELPPDQAEYCIARMAPYTGPDSVPGALDYMSFSTALYGESDL [ACTN1]”, the melting temperature in the data set on HeLa Kyoto [1] (cell cycle stage: G1/S) was determined as 58.3 °C; in the data set with HeLa Kyoto [1] (cell cycle stage: mitosis), 55.9 °C. The thermal stability score in the data set on HeLa Kyoto [2] (setting [5]) was -0.623; in the data set on HeLa Kyoto [2] (cell cycle stage: mitosis) it was -1.86. For the same sequence, the “solubility in G1/S (log2)” value with HeLa Kyoto [3] was -0.1. The “solubility change mitosis (log2)” value in the data set with HeLa Kyoto [4] stood at 0.09.
